Substitutions are numbered along the chain they refer to.
Experiments:
[1] = test system: T1, OhrR C126S C126S (Chromobacterium violaceum ATCC 12472), ORF:deafe3b3; experiment: EMSA; settings: EMSA: 20 mM Tris-HCl pH 7.4, 50 mM KCl, 1 mM DTT, 1 mM EDTA, 5% glycerol, 0.05 mg/ml BSA, 0.1 mg/ml salmon sperm DNA, 25 C, 25 min; footprinting the same …
T1 sequence: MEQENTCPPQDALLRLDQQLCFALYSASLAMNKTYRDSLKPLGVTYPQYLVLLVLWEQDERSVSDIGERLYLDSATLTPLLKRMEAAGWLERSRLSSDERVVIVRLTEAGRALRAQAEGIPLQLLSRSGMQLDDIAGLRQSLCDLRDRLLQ

[2] = test system: T2, OhrR WT (Chromobacterium violaceum ATCC 12472), ORF:deafe3b3; experiment: EMSA; settings: EMSA: 20 mM Tris-HCl pH 7.4, 50 mM KCl, 1 mM DTT, 1 mM EDTA, 5% glycerol, 0.05 mg/ml BSA, 0.1 mg/ml salmon sperm DNA, 25 C, 25 min; footprinting the same …
T2 sequence: T1 sequence with S126C

[3] = test system: T2, OhrR WT (Chromobacterium violaceum ATCC 12472), ORF:deafe3b3; experiment: DNase I footprinting; settings: EMSA: 20 mM Tris-HCl pH 7.4, 50 mM KCl, 1 mM DTT, 1 mM EDTA, 5% glycerol, 0.05 mg/ml BSA, 0.1 mg/ml salmon sperm DNA, 25 C, 25 min; footprinting the same …
[4] = target: Chromobacterium violaceum OhrR (CV0210), wild type, N-terminal histidine tag (Chromobacterium violaceum); experiment: cross-linking; intermolecular disulfide bond formed on oxidation, read by 14% nonreducing SDS-PAGE: DTT-reduced, desalted OhrR (10 µM) treated with 100 µM cumene hydroperoxide for 30 min, then alkylated with 100 mM NEM for 2 h; Coomassie stain

Row | Substance | binding [1] | binding [2] | binding [3] | stoichiometry N [4]
1 | TAAGCTTGCGGTGGCTTCGGCGGTATACAGTACTTTTTGCAGAGGGTTCATCTGGCTCTCCTTGGCTTGACGCCGTTGCGATTAAAATAATGAGCTATTTAATAGTGCACTATCTAACTATCAAAACCCTGACGGGTTCATTGCAGCAGCCGGTCGCGCAGATCGCACAGCGACTGCCTCAATCCGGCGATATCGTCCAGTTGCATTCCGCTCCGGCAGGATCCA (double strand) [ohrA promoter] | binds | binds | binds | –
2 | TGGATCCCTCGCTGGCCGATCTGGGACGCGGCCCGGTGCGGGCGGCCGCCTGATCGCGGTTTCGCGCCCGCTTGGCGCGGGCGCGTCGCGGTTCCGCATAATAATAAATTGCTTGCAATTAAATAGTGCACTATTTATTATGCGGCCATGGAACAAGAAAACACGTGCCCGCCGCAGGACGCGCTTTTGCGGCTGGACCAGCAACTCTGCTTCGCGCTGTATTCCGCCAAGCTTA (double strand) [ohrR promoter] | binds | binds | binds | –
3 | Chromobacterium violaceum OhrR (CV0210), wild type, N-terminal histidine tag (natural protein) | – | – | – | 2
4 | TGAATTCAATCCGTGACGCCGCACAGGGCGCCGGAATGGAACATTCGCGCGCGAACCGGAAAGCGACTCAGCAACGCATCCAGCCTGTCGACACATGCCTCAGCCACATCAGGACTCCTTATCAAATTTTCAGGATCCTATGCAGCTTATCGTCATTTTGCTTGGCATAAAGTTTCTCCAGCCAAACGGCTTAAGCCCACCAACCATCAGGAGCACATCATGTCGATTGAAACCATTCTGTACCGGACCCAAGCCACCGTAAGCTTA (double strand) [ohrB promoter] | – | no binding | – | –

— PMC3469484
